Earlier results in patent publication US20040126825A1, “Methods of screening and using inhibitors of angiogenesis” (Allergan, Inc, priority 2001, published 2004).

Test system: MMP-2
Conditions: cultured breast carcinoma cells; Deryugina et al. 2001

Question: With vitronectin: a specific ligand of αvβ3 as the substance, how does the “activation of MMP-2 (conversion from pro-form to active form)” value read?
Answer: Its value is “inhibited”.
